Experimental data from paper PMC3240954 (Scientific Reports, 2011).

What was measured:
[1] = target: WhiA (S. coelicolor), full-length, untagged (S. coelicolor, UniProt Q9Z515 1-328); experiment: pull-down
[2] = target: H6-WhiA full-length (Streptomyces coelicolor, UniProt Q9Z515 1-328); experiment: competition
Sequence of H6-WhiA full-length (Q9Z515 whole entry): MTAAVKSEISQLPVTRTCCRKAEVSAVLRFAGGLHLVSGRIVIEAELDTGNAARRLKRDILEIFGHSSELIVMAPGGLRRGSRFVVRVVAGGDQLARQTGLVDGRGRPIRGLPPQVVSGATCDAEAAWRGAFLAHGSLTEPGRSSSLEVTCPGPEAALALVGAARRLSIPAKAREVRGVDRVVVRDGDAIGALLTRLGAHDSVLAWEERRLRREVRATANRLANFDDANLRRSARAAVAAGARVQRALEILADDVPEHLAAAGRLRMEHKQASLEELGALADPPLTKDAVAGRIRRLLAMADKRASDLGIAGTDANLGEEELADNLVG

Sequence of WhiA (S. coelicolor), full-length, untagged (Q9Z515 whole entry): as above

B1: His-tagged WhiG (H6-WhiG) (natural protein, UniProt P17211 1-280, looked up)
chain: MPQHTSGSDRAAIPPAARDGGSVRPPAPSTLDELWRSYKTTGDERLREQLILHYSPLVKYVAGRVSVGLPPNVEQADFVSSGVFGLIDAIEKFDVDREIKFETYAITRIRGAMIDELRALDWIPRSVRQKARNVERAYATLEARLRRTPSESEVAVEMGIAVEDLHAVFSQLSLANVVALEELLHAGGEGGGRLSLMDTLEDTAADNPVEVAEDRELRRLLARAINTLPEREKTVVTLYYYEGLTLAEIGNVLGVTESRVSQIHTKSVLQLRAKLAGFGR
- binding result [1]: binds

B2: -22/A (dsDNA)
DNA 1: CGTCATTTGGAGGTTTTGGGACAACACGCCCCTAAACTCGCCCT
DNA 2: AGGGCGAGTTTAGGGGCGTGTTGTCCCAAAACCTCCAAATGACG
- binding result [2]: binds
